Publication PMC8357826, “The extracellular chaperone Clusterin enhances Tau aggregate seeding in a cellular model” (Nature Communications, 2021)

Biological target: cysteine-free TauRD (Tau repeat domain, residues 244-371, C291A/P301L/C322A/V337M) (UniProt P10636-8 244-371, C291A | P301L | C322A | V337M)
Assay: cell-based or functional assay

Sequence of cysteine-free TauRD (Tau repeat domain, residues 244-371, C291A/P301L/C322A/V337M) (P10636 561-688 C608A/P618L/C639A/V654M): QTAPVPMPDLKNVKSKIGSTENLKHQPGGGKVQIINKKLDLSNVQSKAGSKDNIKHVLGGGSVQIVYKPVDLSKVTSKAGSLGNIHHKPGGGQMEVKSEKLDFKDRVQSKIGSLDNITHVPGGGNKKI

seeding capacity in TauRD-YT cells of the soluble fraction of a TauRD aggregation reaction made without Clu, after adding Clu: ~5 fold | specific seeding activity (FRET-positive TauRD-YT cells per ng TauRD) of the Clu-containing supernatant against the supernatant without Clu: ~40 fold
B1: Clusterin (Clu; apolipoprotein J), recombinant with Strep tag (CluStrep) (natural protein, human)
chain 1: DQTVSDNELQEMSNQGSKYVNKEIQNAVNGVKQIKTLIEKTNEERKTLLSNLEEAKKKKEDALNETRESETKLKELPGVCNETMMALWEECKPCLKQTCMKFYARVCRSGSGLVGRQLEEFLNQSSPFYFWMNGDRIDSLLENDRQQTHMLDVMQDHFSRASSIIDELFQDRFFTREPQDTYHYLPFSLPHRRPHFFFPKSRIVR
chain 2: SLMPFSPYEPLNFHAMFQPFLEMIHEAQQAMDIHFHSPAFQHPPTEFIREGDDDRTVCREIRHNSTGCLRMKDQCDKCREILSVDCSTNNPSQAKLRRELDESLQVAERLTRKYNELLKSYQWKMLNTSSLLEQLNEQFNWVSRLANLTQGEDQYYLRVTTVASHTSDSDVPSGVTEVVVKLFDSDPITVTVPVEVSRKNPKFMETVAEKALQEYRKKHREE
modifications: N-glycosylated | N-glycosylated
